{
  "source": "paper PMC6255212",
  "about": "“Coupled molecular dynamics mediate long- and short-range epistasis between mutations that affect stability and aggregation kinetics” (Proceedings of the National Academy of Sciences of the …, 2018)",
  "data": [
    {"substrate": "O=CCO", "experiment": "steady-state enzyme kinetics", "assay_type": "biochemical, Escherichia coli", "conditions": "50 mM Li-HPA (lithium beta-hydroxypyruvate, saturating), 4-80 mM glycolaldehyde", "values": [
      {"protein": "Escherichia coli transketolase (TK) (Escherichia coli K-12; A282P/H192P/I365L) (protein, homodimer of 70- to 74-kDa monomers; holo enzyme with ThDP and Mg2+) SSRKELANAIRALSMDAVQKAKSGHPGAPMGMADIAEVLWRDFLKHNPQNPSWADRDRFVLSNGHGSMLIYSLLHLTGYDLPMEELKNFRQLHSKTPGHPEVGYTAGVETTTGPLGQGIANAVGMAIAEKTLAAQFNRPGHDIVDHYTYAFMGDGCMMEGISHEVCSLAGTLKLGKLIAFYDDNGISIDGPVEGWFTDDTAMRFEAYGWHVIRDIDGHDAASIKRAVEEARAVTDKPSLLMCKTIIGFGSPNKAGTHDSHGAPLGDAEIALTREQLGWKYPPFEIPSEIYAQWDAKEAGQAKESAWNEKFAAYAKAYPQEAAEFTRRMKGEMPSDFDAKAKEFIAKLQANPAKIASRKASQNALEAFGPLLPEFLGGSADLAPSNLTLWSGSKAINEDAAGNYIHYGVREFGMTAIANGISLHGGFLPYTSTFLMFVEYARNAVRMAALMKQRQVMVYTHDSIGLGEDGPTHQPVEQVASLRVTPNMSTWRPCDQVESAVAWKYGVERQDGPTALILSRQNLAQQERTEEQLANIARGGYVLKDCAGQPELIFIATGSEVELAVAAYEKLTAEGVKARVVSMPSTDAFDKQDAAYRESVLPKAVTARVAVEAGIADYWYKYVGLNGAIVGMTTFGESAPAELLFEEFGFTVDNVVAKAKELL", "Km": "19.5(2.1) mM", "kcat": "68.9(2.6) s-1"},
      {"protein": "Escherichia coli transketolase (TK) (Escherichia coli K-12; A282P/G506A/H192P) (protein, homodimer of 70- to 74-kDa monomers; holo enzyme with ThDP and Mg2+) SSRKELANAIRALSMDAVQKAKSGHPGAPMGMADIAEVLWRDFLKHNPQNPSWADRDRFVLSNGHGSMLIYSLLHLTGYDLPMEELKNFRQLHSKTPGHPEVGYTAGVETTTGPLGQGIANAVGMAIAEKTLAAQFNRPGHDIVDHYTYAFMGDGCMMEGISHEVCSLAGTLKLGKLIAFYDDNGISIDGPVEGWFTDDTAMRFEAYGWHVIRDIDGHDAASIKRAVEEARAVTDKPSLLMCKTIIGFGSPNKAGTHDSHGAPLGDAEIALTREQLGWKYPPFEIPSEIYAQWDAKEAGQAKESAWNEKFAAYAKAYPQEAAEFTRRMKGEMPSDFDAKAKEFIAKLQANPAKIASRKASQNAIEAFGPLLPEFLGGSADLAPSNLTLWSGSKAINEDAAGNYIHYGVREFGMTAIANGISLHGGFLPYTSTFLMFVEYARNAVRMAALMKQRQVMVYTHDSIGLGEDGPTHQPVEQVASLRVTPNMSTWRPCDQVESAVAWKYAVERQDGPTALILSRQNLAQQERTEEQLANIARGGYVLKDCAGQPELIFIATGSEVELAVAAYEKLTAEGVKARVVSMPSTDAFDKQDAAYRESVLPKAVTARVAVEAGIADYWYKYVGLNGAIVGMTTFGESAPAELLFEEFGFTVDNVVAKAKELL", "Km": "20.2(1.5) mM", "kcat": "54.3(1.4) s-1"},
      {"protein": "Escherichia coli transketolase (TK) (Escherichia coli K-12; A282P/G506A/H192P/I365L) (protein, homodimer of 70- to 74-kDa monomers; holo enzyme with ThDP and Mg2+) SSRKELANAIRALSMDAVQKAKSGHPGAPMGMADIAEVLWRDFLKHNPQNPSWADRDRFVLSNGHGSMLIYSLLHLTGYDLPMEELKNFRQLHSKTPGHPEVGYTAGVETTTGPLGQGIANAVGMAIAEKTLAAQFNRPGHDIVDHYTYAFMGDGCMMEGISHEVCSLAGTLKLGKLIAFYDDNGISIDGPVEGWFTDDTAMRFEAYGWHVIRDIDGHDAASIKRAVEEARAVTDKPSLLMCKTIIGFGSPNKAGTHDSHGAPLGDAEIALTREQLGWKYPPFEIPSEIYAQWDAKEAGQAKESAWNEKFAAYAKAYPQEAAEFTRRMKGEMPSDFDAKAKEFIAKLQANPAKIASRKASQNALEAFGPLLPEFLGGSADLAPSNLTLWSGSKAINEDAAGNYIHYGVREFGMTAIANGISLHGGFLPYTSTFLMFVEYARNAVRMAALMKQRQVMVYTHDSIGLGEDGPTHQPVEQVASLRVTPNMSTWRPCDQVESAVAWKYAVERQDGPTALILSRQNLAQQERTEEQLANIARGGYVLKDCAGQPELIFIATGSEVELAVAAYEKLTAEGVKARVVSMPSTDAFDKQDAAYRESVLPKAVTARVAVEAGIADYWYKYVGLNGAIVGMTTFGESAPAELLFEEFGFTVDNVVAKAKELL", "Km": "22.7(2.2) mM", "kcat": "58.3(2.1) s-1"}
    ]}
  ]
}
